Experimental findings from article PMC8208582, “Crosstalk between H2A variant-specific modifications impacts vital cell functions” (PLoS Genetics, 2021) are described below.

The target of this assay is T1, recombinant H2B.9 (Arabidopsis, UniProt O23629 1-150).
T1 construct: histone H2B.9 (HTB9) of Arabidopsis; source: E. coli BL21 (DE3), purified (Ni-NTA under denaturing conditions, thrombin, SP sepharose)
Kind of assay: SEC; freeze-dried histones mixed at a 1:1 molar ratio in 7 M guanidine hydrochloride, step-wise dialysed from 2 M to 0.1 M NaCl refolding buffer, Superdex200 in 0.1 M NaCl refolding buffer; peak fractions on SDS-PAGE. The conditions noted are these: both partners purified. (In general: SEC sorts molecules by how far they enter the pores of the column.)

T1 sequence (O23629 whole entry): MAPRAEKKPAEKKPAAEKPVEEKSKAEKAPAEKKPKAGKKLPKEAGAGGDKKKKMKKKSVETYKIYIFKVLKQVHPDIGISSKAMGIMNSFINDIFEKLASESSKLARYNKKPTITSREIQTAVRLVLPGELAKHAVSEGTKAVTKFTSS

B1: recombinant H2A.13 (natural protein, Arabidopsis, UniProt Q9LHQ5 1-132, looked up)
chain: MAGRGKTLGSGVAKKSTSRSSKAGLQFPVGRIARFLKNGKYATRVGAGAPVYLAAVLEYLAAEVLELAGNAARDNKKTRIVPRHIQLAVRNDEELSKLLGDVTIANGGVMPNIHSLLLPKKAGASKPSADED
notes: histone H2A.13 of Arabidopsis; source: E. coli BL21 (DE3), purified (Ni-NTA under denaturing conditions, thrombin, SP sepharose)
For B1, the binding result is on record as “binds”.

B2: recombinant H2A.W.7 (natural protein, Arabidopsis, UniProt Q94F49 1-150, looked up)
chain: MESSQATTKPTRGAGGRKGGDRKKSVSKSVKAGLQFPVGRIARYLKKGRYALRYGSGAPVYLAAVLEYLAAEVLELAGNAARDNKKNRINPRHLCLAIRNDEELGRLLHGVTIASGGVLPNINPVLLPKKSTASSSQAEKASATKSPKKA
notes: histone H2A.W.7 of Arabidopsis; source: E. coli BL21 (DE3), purified (Ni-NTA under denaturing conditions, thrombin, SP sepharose)
Consider B2, for which the binding result was “binds”.

B3: recombinant H2A.W.6 (natural protein, Arabidopsis, UniProt Q9FJE8 1-150, looked up)
chain: MESTGKVKKAFGGRKPPGAPKTKSVSKSMKAGLQFPVGRITRFLKKGRYAQRLGGGAPVYMAAVLEYLAAEVLELAGNAARDNKKSRIIPRHLLLAIRNDEELGKLLSGVTIAHGGVLPNINSVLLPKKSATKPAEEKATKSPVKSPKKA
notes: histone H2A.W.6 of Arabidopsis; source: E. coli BL21 (DE3), purified (Ni-NTA under denaturing conditions, thrombin, SP sepharose)
For the molecule B3, the binding result is “binds”.
